# Measured values from PMC12084609, “Structural insights into small-molecule agonist recognition and activation of complement receptor C3aR” (The EMBO Journal, 2025).
# Residue numbers refer to the chain shown, from its start. Several values for one entry are separate records, joined by “and”; a condition that tells them apart may be missing. Equal entries are not always repeated.
# Columns and labels:
# Format in all cases: cell-based
# [1] = biological target: T1, C3aR I102^3.32A/I421^7.39A (Homo sapiens, UniProt Q16581, I102A/I421A); assay: GloSensor-based cAMP assay, C3aR double mutant I102A/I421A; settings: for cAMP response (% Forskolin): single replicates
# T1 construct: expressed in transfected cells; host or cells: HEK293T
# T1 sequence (Q16581 1-482 I102A/I421A): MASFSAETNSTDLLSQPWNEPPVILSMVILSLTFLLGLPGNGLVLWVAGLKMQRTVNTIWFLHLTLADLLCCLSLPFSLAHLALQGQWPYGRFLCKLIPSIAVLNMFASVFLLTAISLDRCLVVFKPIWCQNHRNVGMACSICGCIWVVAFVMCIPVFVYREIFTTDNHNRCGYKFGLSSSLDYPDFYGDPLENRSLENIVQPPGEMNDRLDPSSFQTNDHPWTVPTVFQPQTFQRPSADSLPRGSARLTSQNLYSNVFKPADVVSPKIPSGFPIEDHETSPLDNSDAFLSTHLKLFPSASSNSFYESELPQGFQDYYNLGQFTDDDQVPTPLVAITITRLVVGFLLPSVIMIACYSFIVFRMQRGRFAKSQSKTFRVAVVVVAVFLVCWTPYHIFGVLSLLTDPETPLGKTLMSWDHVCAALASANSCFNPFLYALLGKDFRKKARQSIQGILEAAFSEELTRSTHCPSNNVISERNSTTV
# Procedure: (§1) HEK293T cells were seeded on 6-well plates (NEST) and transfected with pGlosensor™-22F plasmids (Promega) and pcDNA3.1 plasmids encoding C3aR or its mutants an with N-terminal FLAG tag. After 48 h, cells were detached with Accutase solution (Sigma-Aldrich) and washed with PBS, and resuspended in assay buffer (CO2-independent medium with 0.5 mg mL^−1D-luciferin). 100,000–200,000 cells were seeded on 96-well white bottom plates (SPL) and incubated at 37 °C for 45 min followed by 45 min incubation at room temperature. After 90 min of incubation, basal luminescence signals were recorded. In total, 25 μl of test ligand with various concentrations and 1 μM Forskolin (Sigma-Aldrich) were treated to the cells and luminescence signals were measured by Tristar 2 LB 942 multimode reader (Berthold). […] Relative luminescence unit (%) was calculated with the signal of wells treated with vehicle as 0% and the signal of wells treated with 1 μM Forskolin as 100% (DiRaddo et al, [2014]). Nonlinear regression was performed using a three-parameter logistic equation.
# C3aR R340^5.42A = biological target: T2, C3aR R340^5.42A (Homo sapiens, UniProt Q16581, R340A); assay: GloSensor-based cAMP assay, C3aR mutant R340A; settings: for cAMP response (% Forskolin): R3405.42A, single replicates
# T2 construct: expressed in transfected cells; host or cells: HEK293T
# T2 sequence (Q16581 1-482 R340A): T1 sequence (Q16581 1-482 I102A/I421A) with A102I, R340A, A421I
# Procedure: as §1
# C3aR L30^1.39A = biological target: T3, C3aR L30^1.39A (Homo sapiens, UniProt Q16581, L30A); assay: GloSensor-based cAMP assay, C3aR mutant L30A; settings: for cAMP response (% Forskolin): L301.39A, single replicates
# T3 construct: expressed in transfected cells; host or cells: HEK293T
# T3 sequence (Q16581 1-482 L30A): T1 sequence (Q16581 1-482 I102A/I421A) with L30A, A102I, A421I
# Procedure: as §1
substance,measurement,setting,value
"C3a: anaphylatoxin C3a, natural peptide ligand of C3aR (a 77-amino acid peptide), Sigma-Aldrich",cAMP response (% Forskolin),"[1]; I102A/I421A, Log[C3a (M)] -7",60.33 % Forskolin and 51.98 % Forskolin and 58.06 % Forskolin
same,cAMP response (% Forskolin),"[1]; I102A/I421A, Log[C3a (M)] -8",94.58 % Forskolin and 89.45 % Forskolin and 91.46 % Forskolin
same,cAMP response (% Forskolin),"[1]; I102A/I421A, Log[C3a (M)] -9",96.12 % Forskolin and 94.02 % Forskolin and 96.29 % Forskolin
same,cAMP response (% Forskolin),"[1]; I102A/I421A, Log[C3a (M)] -10",100.40 % Forskolin and 98.48 % Forskolin and 97.75 % Forskolin
same,cAMP response (% Forskolin),"[1]; I102A/I421A, Log[C3a (M)] -11",101.76 % Forskolin and 98.75 % Forskolin and 98.69 % Forskolin
same,cAMP response (% Forskolin),"[1]; I102A/I421A, Log[C3a (M)] -12",99.03 % Forskolin and 95.31 % Forskolin and 95.64 % Forskolin
same,ΔpIC50 ± SE of Diff.,[1]; I102^3.32A/I421^7.39A relative to WT C3aR,-0.51 ± 0.05
same,IC50,"[1]; I102^3.32A/I421^7.39A, dose-response plot, read-out: IC50",10.1 nM
same,pIC50 (Replicate),"[1]; I102^3.32A/I421^7.39A, individual replicates",8.09 and 7.94 and 7.95
same,pIC50 ± SEM (Mean),"[1]; I102^3.32A/I421^7.39A, mean of independent experiments",7.99
same,cAMP response (% Forskolin),"[1]; I1023.32A/I4217.39A, Log[C3a (M)] -7",17.14 % Forskolin and 17.92 % Forskolin and 21.78 % Forskolin
same,cAMP response (% Forskolin),"[1]; I1023.32A/I4217.39A, Log[C3a (M)] -8",50.03 % Forskolin and 58.06 % Forskolin and 57.92 % Forskolin
same,cAMP response (% Forskolin),"[1]; I1023.32A/I4217.39A, Log[C3a (M)] -9",101.91 % Forskolin and 104.37 % Forskolin and 102.64 % Forskolin
same,cAMP response (% Forskolin),"[1]; I1023.32A/I4217.39A, Log[C3a (M)] -10",108.19 % Forskolin and 105.12 % Forskolin and 103.38 % Forskolin
same,cAMP response (% Forskolin),"[1]; I1023.32A/I4217.39A, Log[C3a (M)] -11",107.31 % Forskolin and 106.77 % Forskolin and 101.12 % Forskolin
same,cAMP response (% Forskolin),"[1]; I1023.32A/I4217.39A, Log[C3a (M)] -12",98.25 % Forskolin and 100.53 % Forskolin and 100.03 % Forskolin
same,ΔpIC50 ± SE of Diff.,C3aR R340^5.42A; R340^5.42A relative to WT C3aR,-1.39 ± 0.06
same,IC50,"C3aR R340^5.42A; R340^5.42A, dose-response plot, read-out: IC50",47 nM
same,pIC50 (Replicate),"C3aR R340^5.42A; R340^5.42A, individual replicates",7.31 and 7.68 and 7.02 and 6.95
same,pIC50 ± SEM (Mean),"C3aR R340^5.42A; R340^5.42A, mean of independent experiments",7.21
same,cAMP response (% Forskolin),C3aR R340^5.42A; Log[C3a (M)] -7,25.35 % Forskolin and 26.64 % Forskolin and 21.46 % Forskolin and 37.94 % Forskolin and 13.15 % Forskolin and 37.80 % Forskolin
same,cAMP response (% Forskolin),C3aR R340^5.42A; Log[C3a (M)] -8,77.37 % Forskolin and 75.03 % Forskolin and 71.05 % Forskolin and 86.28 % Forskolin and 86.11 % Forskolin and 85.37 % Forskolin
same,cAMP response (% Forskolin),C3aR R340^5.42A; Log[C3a (M)] -9,91.29 % Forskolin and 112.12 % Forskolin and 107.73 % Forskolin and 93.95 % Forskolin and 109.05 % Forskolin and 100.87 % Forskolin
same,cAMP response (% Forskolin),C3aR R340^5.42A; Log[C3a (M)] -10,92.00 % Forskolin and 91.42 % Forskolin and 98.18 % Forskolin and 91.19 % Forskolin and 108.32 % Forskolin and 87.99 % Forskolin
same,cAMP response (% Forskolin),C3aR R340^5.42A; Log[C3a (M)] -11,98.26 % Forskolin and 112.91 % Forskolin and 108.63 % Forskolin and 92.51 % Forskolin and 96.75 % Forskolin and 86.60 % Forskolin
same,cAMP response (% Forskolin),C3aR R340^5.42A; Log[C3a (M)] -12,94.72 % Forskolin and 95.53 % Forskolin and 102.57 % Forskolin and 99.30 % Forskolin and 100.29 % Forskolin and 108.61 % Forskolin
same,"Mean Diff. of pIC50, WT vs. L30A","C3aR L30^1.39A; Dunnett's multiple comparisons test, WT minus mutant",-0.019
same,ΔpIC50 ± SE of Diff.,C3aR L30^1.39A; L30^1.39A relative to WT C3aR,0.019 ± 0.009
same,IC50,"C3aR L30^1.39A; L30^1.39A, dose-response plot, read-out: IC50",2.77 nM
same,pIC50 (Replicate),"C3aR L30^1.39A; L30^1.39A, individual replicates",8.56 and 8.70 and 8.57 and 8.44
same,pIC50 ± SEM (Mean),"C3aR L30^1.39A; L30^1.39A, mean of independent experiments",8.57 ± 0.05 and 8.57
same,cAMP response (% Forskolin),C3aR L30^1.39A; Log[C3a (M)] -7,9.08 % Forskolin and 11.83 % Forskolin and 11.69 % Forskolin and 11.40 % Forskolin
same,cAMP response (% Forskolin),C3aR L30^1.39A; Log[C3a (M)] -8,10.54 % Forskolin and 13.47 % Forskolin and 12.71 % Forskolin and 14.92 % Forskolin
same,cAMP response (% Forskolin),C3aR L30^1.39A; Log[C3a (M)] -9,79.63 % Forskolin and 73.91 % Forskolin and 80.93 % Forskolin and 94.77 % Forskolin
same,cAMP response (% Forskolin),C3aR L30^1.39A; Log[C3a (M)] -10,98.57 % Forskolin and 99.49 % Forskolin and 94.04 % Forskolin and 99.72 % Forskolin
same,cAMP response (% Forskolin),C3aR L30^1.39A; Log[C3a (M)] -11,93.76 % Forskolin and 102.28 % Forskolin and 98.92 % Forskolin (2×)
same,cAMP response (% Forskolin),C3aR L30^1.39A; Log[C3a (M)] -12,93.05 % Forskolin and 98.36 % Forskolin and 95.43 % Forskolin and 98.17 % Forskolin
